Measurements: patent US20220403048A1 (CANCER RESEARCH TECHNOLOGY, published 2022)
Read-outs that look alike come from different tables or passages of the source.

Legend:
[1] = target: T1, THP-1 lysate derived human trimeric ARG2 (human, UniProt P78540 23-354, limits assumed); experiment: cell-based or functional assay
T1 sequence (looked up): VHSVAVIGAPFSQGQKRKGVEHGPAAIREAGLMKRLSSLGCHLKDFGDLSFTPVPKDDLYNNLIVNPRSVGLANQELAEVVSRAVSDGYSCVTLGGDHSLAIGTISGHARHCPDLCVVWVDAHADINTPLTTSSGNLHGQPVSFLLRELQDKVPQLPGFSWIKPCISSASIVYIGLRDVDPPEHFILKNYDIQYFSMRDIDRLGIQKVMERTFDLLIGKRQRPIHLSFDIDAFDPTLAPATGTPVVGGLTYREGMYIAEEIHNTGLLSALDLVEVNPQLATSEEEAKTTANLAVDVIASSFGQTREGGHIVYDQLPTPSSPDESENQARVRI

[2] = target: T1, THP-1 lysate derived human trimeric ARG2; experiment: cell-based or functional assay; remark: listed apart in the source
[3] = target: T2, recombinant human trimeric ARG2 enzyme (construct not given) (human, UniProt P78540 23-354); experiment: cell-based or functional assay
T2 sequence (looked up): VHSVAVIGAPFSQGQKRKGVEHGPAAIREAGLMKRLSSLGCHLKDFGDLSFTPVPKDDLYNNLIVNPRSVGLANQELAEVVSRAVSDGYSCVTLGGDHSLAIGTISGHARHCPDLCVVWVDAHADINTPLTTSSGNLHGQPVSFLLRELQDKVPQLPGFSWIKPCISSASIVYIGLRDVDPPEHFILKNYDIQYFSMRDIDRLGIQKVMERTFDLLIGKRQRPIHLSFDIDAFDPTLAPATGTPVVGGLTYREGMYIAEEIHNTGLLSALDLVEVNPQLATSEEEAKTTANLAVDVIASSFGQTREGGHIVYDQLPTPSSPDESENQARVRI

[4] = target: T2, recombinant human trimeric ARG2 enzyme …; experiment: cell-based or functional assay; remark: listed apart in the source
[5] = target: T3, biotinylated recombinant human trimeric ARG2 enzyme (Avi-huARG2-His10) (human, UniProt P78540 23-354, biotinylated); experiment: HTRF epitope competition, scFv titrated, competitor C0020187 IgG, on biotinylated human trimeric ARG2
T3 construct: also called avi-Arg2-His10; bio-ARG2
T3 chain: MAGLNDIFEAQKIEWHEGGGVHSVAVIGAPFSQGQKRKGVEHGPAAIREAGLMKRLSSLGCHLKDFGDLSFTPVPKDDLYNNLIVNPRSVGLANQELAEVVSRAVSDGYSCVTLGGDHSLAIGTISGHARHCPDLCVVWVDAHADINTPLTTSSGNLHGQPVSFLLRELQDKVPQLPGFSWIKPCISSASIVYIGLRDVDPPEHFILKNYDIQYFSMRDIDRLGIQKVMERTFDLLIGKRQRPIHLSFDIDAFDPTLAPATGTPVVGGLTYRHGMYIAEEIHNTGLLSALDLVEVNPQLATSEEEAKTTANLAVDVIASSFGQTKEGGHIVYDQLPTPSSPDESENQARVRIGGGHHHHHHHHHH

[6] = target: T2, recombinant human trimeric ARG2 enzyme …; experiment: cell-based or functional assay; remark: listed apart in the source

B1: C0021061 recombinant human IgG1 (antibody, V domains shown)
VH: EVQLLESGGGLVQPGGSLRLSCAASGFTFSSYAMSWVRQAPGKGLEWVSAKPTDAGSTYYADSVKGRFTISRDNSKNTLYLQMNSLRAEDTAVYYCARLRADLGLYMDLWGRGTLVTVSS
VL: QSVLTQPPSVSAAPGQKVTISCSGSSSNIGNHYVSWYQQLPGTAPKLLIYNTVYPKSGIPDRFSGSKSGTSATLGITGLQTGDEADYYCGTWDSSLSALVFGGGTKLTVL
[1]
  IC50 (M) THP-1 ARG2 (healthy human plasma): 2.9e-09 M
  IC50 (M) THP-1 ARG2 (no plasma): 6.79e-09 M
[2]
  THP-1 lysate ARG2 EIA IC50: 5.81 nM
[3]
  EC50, In Presence of rhARG2 (T cell proliferation): 149 nM
  Maximum % Proliferation, In Presence of rhARG2: 110%
[4]
  EC50, In Presence of rhARG2 (T cell proliferation): 113 nM
  Maximum % Proliferation, In Presence of rhARG2: 83%

B2: C0021092 recombinant human IgG1 (antibody, V domains shown)
VH: EVQLLESGGGLVQPGGSLRLSCAASGFTFSRYAMSWVRQAPGKGLEWVSAHTHSPGSTYYADSVKGRFTISRDNSKNTLYLQMNSLRAEDTAVYYCARLRADLGLYMDLWGRGTLVTVSS
VL: QSVLTQPPSVSAAPGQKVTISCSGSSSNIGNHYVSWYQQLPGTAPKLLIYNSVARPSGIPDRFSGSKSGTSATLGITGLQTGDEADYYCGTWDSSLSALVFGGGTKLTVL
[1]
  IC50 (M) THP-1 ARG2 (healthy human plasma): 2.82e-09 M
  IC50 (M) THP-1 ARG2 (no plasma): 6.56e-09 M
[4]
  EC50, In Presence of rhARG2 (T cell proliferation): 116 nM
  Maximum % Proliferation, In Presence of rhARG2: 77%

B3: C0021139 recombinant human IgG1 (antibody, V domains shown)
VH: EVQLLESGGGLVQPGGSLRLSCAASGFTFQYDYQVWVRQAPGKGLEWVSAISGSGGSTYYADSVKGRFTISRDNSKNTLYLQMNSLRAEDTAVYYCARLRADLGLYMDLWGRGTLVTVSS
VL: QSVLTQPPSVSAAPGQKVTISCSGSSSNIGNHYVSWYQQLPGTAPKLLIYDNSERTSGIPDRFSGSKSGTSATLGITGLQTGDEADYYCGTWDELTSNLVFGGGTKLTVL
[1]
  IC50 (M) THP-1 ARG2 (healthy human plasma): 2.02e-09 M
  IC50 (M) THP-1 ARG2 (no plasma): 5.75e-09 M
[4]
  EC50, In Presence of rhARG2 (T cell proliferation): 111 nM
  Maximum % Proliferation, In Presence of rhARG2: 67%

B4: C0021128 scFv (scFv, V domains shown)
VH: EVQLLESGGGLVQPGGSLRLSCAASGFTFQYEVAAWVRQAPGKGLEWVSAISGPIPKGYYADSVKGRFTISRDNSKNTLYLQMNSLRAEDTAVYYCARLRADLGLYMDLWGRGTLVTVSS
VL: QSVLTQPPSVSAAPGQKVTISCSGSSSNIGNHYVSWYQQLPGTAPKLLIYDNAIESSGIPDRFSGSKSGTSATLGITGLQTGDGADYYCGTWDSNLSALVFGGGTKLTVL
notes: scFv
[5]
  IC50: 44.5 nM
[6]
  Trimeric human ARG2 EIA IC50: 169 nM

B5: C0021133 scFv (scFv, V domains shown)
VH: EVQLLESGGGLVQPGGSLRLSCAASGFTFRYDHHVWVRQAPGKGLEWVSAISGSGGSTYYADSVKGRFTISRDNSKNTLYLQMNSLRAEDTAVYYCARLRADLGLYMDLWGRGTLVTVSS
VL: QSVLTQPPSVSAAPGQKVTVSCSGSSSNIGNHYVSWYQQLPGTAPKLLIYDTTVLSSGIPDRFSGSKSGTSATLGITGLQTGDEADYYCGTWDELTSNLVFGGGTKLTVL
notes: scFv
[5]
  IC50: 43.3 nM
[6]
  Trimeric human ARG2 EIA IC50: 281 nM

B6: C0021141 scFv (scFv, V domains shown)
VH: EVQLLESGGGLVQPGGSLRLSCAASGFTFYPDPQGWVRQAPGKGLEWVSAYGYGIGSTYYADSVKGRFTISRDNSKNTLYLQMNSLRAEDTAVYYCARLRADLGLYMDLWGRGTLVTVSS
VL: QSVLTQPPSVSAAPGQEVTISCSGSSSNIDNHYVSWYQQLPGTAPKLLIYDNSERPSGIPDRFSGSKSGTSATLGITGLQTGDEADYYCGTWDSSLSALVFGGGTKLTVL
notes: scFv
[5]
  IC50: 51.1 nM
[6]
  Trimeric human ARG2 EIA IC50: 109 nM

B7: C0021022 recombinant human IgG1 (antibody, V domains shown)
VH: EVQLLESGGGLVQPGGSLRLSCAASGFTFSSYAMSWVRQAPGKGPEWVSAISGFSPYYADSVKGRFTISRDNSKNTLYLQMNSLRAEDTAVYYCARLRADLGLYMDLWGRGTLVTVSS
VL: QSVLTQPPSVSAAPGQKVTISCSGSSSNIGNHYVSWYQQLPGTAPKLLIYDNSERPSGIPDRFSGSKSGTSATLGITGLQTGDEADYYCGTWDSSLSALVFGGGTKLTVL
[1]
  IC50 (M) THP-1 ARG2 (healthy human plasma): 2.71e-09 M
  IC50 (M) THP-1 ARG2 (no plasma): 5.81e-09 M
[4]
  EC50, In Presence of rhARG2 (T cell proliferation): 132 nM
  Maximum % Proliferation, In Presence of rhARG2: 77%

B8: C0021065 recombinant human IgG1 (antibody, V domains shown)
VH: EVQLLESGGGLVQPGGSLRLSCAASGFTFSSYAMSWVRQAPGKGPEWVSAISGFSPYYADSVKGRFTISRDNSRNTLYLQMNSLRAEDTAVYYCARLRADLGLYMDLWGRGTLVTVSS
VL: QSVLTQPPSVSAAPGQKVTISCSGSSSNIGNHYVSWYQQLPGTAPKLLIYDTDHMASGIPDRFSGSKSGTSATLGITGLQTGDEADYYCGTWDSSLSALVFGGGTKLTVL
[1]
  IC50 (M) THP-1 ARG2 (healthy human plasma): 2.98e-09 M
  IC50 (M) THP-1 ARG2 (no plasma): 5.99e-09 M
[4]
  EC50, In Presence of rhARG2 (T cell proliferation): 136 nM
  Maximum % Proliferation, In Presence of rhARG2: 87%

B9: C0021133 recombinant human IgG1 (antibody, V domains shown)
VH: EVQLLESGGGLVQPGGSLRLSCAASGFTFRYDHHVWVRQAPGKGLEWVSAISGSGGSTYYADSVKGRFTISRDNSKNTLYLQMNSLRAEDTAVYYCARLRADLGLYMDLWGRGTLVTVSS
VL: QSVLTQPPSVSAAPGQKVTVSCSGSSSNIGNHYVSWYQQLPGTAPKLLIYDTTVLSSGIPDRFSGSKSGTSATLGITGLQTGDEADYYCGTWDELTSNLVFGGGTKLTVL
[1]
  IC50 (M) THP-1 ARG2 (healthy human plasma): 3.7e-09 M
  IC50 (M) THP-1 ARG2 (no plasma): 6.68e-09 M
[2]
  THP-1 lysate ARG2 EIA IC50: 7.38 nM
[4]
  EC50, In Presence of rhARG2 (T cell proliferation): 101 nM
  Maximum % Proliferation, In Presence of rhARG2: 73%

B10: C0021144 recombinant human IgG1 (antibody, V domains shown)
VH: EVQLLESGGGLVQPGGSLRLSCAASGFTFRYDYHVWVRQAPGKGLEWVSAISGSGGSTYYADSVKGRFTISRDNSKNTLYLQMNSLRAEDTAVYYCARLRADLGLYMDLWGRGTLVTVSS
VL: QSVLTQPPSVSAAPGQKVTVSCSGSSSNIGNHHVSWYQQLPGTAPKLLIYDTTVLSSGVPDRFSGSKSGTSATLGITGLQTGDEADYYCGTWDELTSNLVFGGGTKLTVL
[2]
  THP-1 lysate ARG2 EIA IC50: 10.9 nM

B11: C0021180 recombinant human IgG1 (antibody, V domains shown)
VH: EVQLLESGGGLVQPGGSLRLSCAASGFTFRYEVAAWVRQAPGKGLEWVSAISGPIPKGYYADSVKGRFTISRDNSKNTLYLQMNSLRAEDTAVYYCARLRADLGLYMDLWGRGTLVTVSS
VL: QSVLTQPPTVSAAPGRKVTISCSGSSSNIGDHHVSWYQQLPGAAPKLLIYDTDHMASGIPDRFSGSRSGTSATLGITGLQTGDEADYYCGTWDSSLSALVFGGGTKLTVL
[2]
  THP-1 lysate ARG2 EIA IC50: 4.59 nM
[3]
  EC50, In Presence of rhARG2 (T cell proliferation): 137 nM
  Maximum % Proliferation, In Presence of rhARG2: 91%

B12: C0021155 recombinant human IgG1 (antibody, V domains shown)
VH: EVQLLESGGGLVQPGGSLRLSCEASGFTFRYDYHVWVRQAPGKGLEWVSAISGSGGSTYYADPVKGRFTISRDNSKNTLYLQMNSLRAEDTAVYYCARLRADLGLYMDLWGRGTLVTVSS
VL: RSVLTQPPSVSAAPGQKVTISCSGSSSNIGNHYVSWYQQLPGTAPKLLIYDTTVLSSGIPDRFSGSKSGTSATLGITGLQTGDEADYYCGTWDELTSNLVFGGGTRLTVL
[2]
  THP-1 lysate ARG2 EIA IC50: 9.64 nM

B13: C0021177 recombinant human IgG1 (antibody, V domains shown)
VH: EVQLLESGGGLVQPGGSLRLSCAASGFTFRYEVAAWVRQAPGKGLEWVSAISGPAPKGYYADSVKGRFTISRDNSKNTLYLQMNSLRAEDTAVYYCARLRADLGLYMDLWGRGTLVTVSS
VL: QSELTQPPTASAAPGQKVTISCSGSSSNIGNHYVSWYQQLPGTAPKLLIYDTTVLSSGIPDRFSGSKSGTSATLGITGLQTGDEADYYCGTWDELTSNLVFGGGTKLTVL
[2]
  THP-1 lysate ARG2 EIA IC50: 5.17 nM
[3]
  EC50, In Presence of rhARG2 (T cell proliferation): 86 nM
  Maximum % Proliferation, In Presence of rhARG2: 84%

B14: C0021181 recombinant human IgG1 (antibody, V domains shown)
VH: EVQLLESGGGLVRPGGSLRLSCAASEFTFRYDYHVWVRQAPGKGLEWVSAISGSGGSTYYADSVKSRFTISRDNSKNTLYLQMNSLRAEDTAVYYCARLRADLGLYMDLWGRGTLVTVSS
VL: QSVLTQPPSVSAAPGQKVAVSCSGSSSNIGSHYVSWYQQLPGTAPKLLIYDNSERTSGIPDRFSGSKSGTSATLGITGLQTGDEADYYCGTWDELTSNLVFGGGTRLTVL
[2]
  THP-1 lysate ARG2 EIA IC50: 6.93 nM
